Measured values published in patent publication US20110070184A1, “METHODS AND COMPOSITIONS FOR TREATING ATHEROSCLEROSIS AND RELATED CONDIDTIONS” (CAROLUS THERPEUTICS, INC., priority 2008, published 2011).

Columns and labels:
[1] = target: CXCR4 (Homo sapiens, UniProt P61073); conditions: data not shown
[2] = tested on: primary human monocytes; assay: Transwell chemotaxis of primary monocytes toward MIF; type: cell-based
Procedure: (§1) Chemotaxis assays. […] Pore sizes and intervals were 5 μm and 3 h (monocytes), 3 μm and 1.5 h (T cells), and […] and 1 h (neutrophils).

[3] = tested on: primary CD3+ T lymphocytes; assay: Transwell chemotaxis of primary CD3+ T cells toward MIF; type: cell-based, human; conditions: primary CD3+ T lymphocytes devoid of CXCR1 and CXCR2
Procedure: as §1

[4] = target: T1, CXCR2 (Homo sapiens, UniProt P25025); assay: CXCR2 internalization assay in HEK293-CXCR2 transfectants (FACS); type: cell-based; conditions: stable HEK293 transfectants
T1 construct: expressed in transfected cells
T1 sequence (P25025 1-360): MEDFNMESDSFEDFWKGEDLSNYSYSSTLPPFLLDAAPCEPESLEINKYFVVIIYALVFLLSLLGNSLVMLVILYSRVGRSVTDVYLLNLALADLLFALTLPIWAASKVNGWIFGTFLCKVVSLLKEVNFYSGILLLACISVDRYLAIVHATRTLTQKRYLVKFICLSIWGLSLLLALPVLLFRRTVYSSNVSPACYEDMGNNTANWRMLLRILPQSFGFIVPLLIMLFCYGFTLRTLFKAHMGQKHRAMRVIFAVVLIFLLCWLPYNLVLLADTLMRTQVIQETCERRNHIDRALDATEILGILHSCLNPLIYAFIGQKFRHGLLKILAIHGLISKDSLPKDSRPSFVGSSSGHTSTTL
Procedure: CXCR internalization assays. […] Internalization was calculated relative to surface expression of buffer-treated cells (100% control) and isotype control staining (0% control): geometric MFI[experimental]−MFI[0% control]/MFI[100% control]−MFI[0% control]×100.

[5] = target: T2, CCR5 (Homo sapiens, UniProt P51681); assay: CCR5 internalization in L1.2 CCR5 transfectants; type: cell-based; conditions: data not shown
T2 construct: host or cells: L1.2 (mouse pre-B lymphoma) cells
T2 sequence (P51681 whole entry): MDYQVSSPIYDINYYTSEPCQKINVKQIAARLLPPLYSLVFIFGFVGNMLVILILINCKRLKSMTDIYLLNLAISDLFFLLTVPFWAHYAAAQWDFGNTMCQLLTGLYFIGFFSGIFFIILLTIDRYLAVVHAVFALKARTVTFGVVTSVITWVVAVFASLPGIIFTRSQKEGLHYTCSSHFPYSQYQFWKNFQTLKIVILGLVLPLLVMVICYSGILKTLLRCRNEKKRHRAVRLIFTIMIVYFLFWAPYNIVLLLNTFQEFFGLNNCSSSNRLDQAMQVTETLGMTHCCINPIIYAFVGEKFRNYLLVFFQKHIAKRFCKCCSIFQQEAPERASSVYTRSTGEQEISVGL

[6] = tested on: primary human monocytes; assay: Arrest of primary monocytes on MIF-pretreated human aortic endothelial cells under flow; type: cell-based; conditions: aortic endothelial cells pretreated with recombinant MIF for 2 h
Procedure: Adhesion assays. Arrest of calcein-AM (Molecular Probes)-labeled monocytes, T cells and L1.2 transfectants was quantified in parallel-wall chambers in flow (1.5 dynes/cm^2, 5 min) (Schober, A., et al. (2004) Circulation 109, 380-385; Osterman, G., et al. (2002) Nat. Immunol. 3, 151-158; Weber, C., et al. (1996) J. Cell Biol. 134, 1063-1073).

[7] = tested on: primary human neutrophils; assay: Calcium mobilization in neutrophils (Fluo-4 AM); type: cell-based
Text: (§2) Calcium mobilization. Neutrophils or L1.2 CXCR2 transfectants were labeled with Fluo-4 AM (Molecular Probes).

[8] = target: T1, CXCR2; assay: Calcium mobilization in L1.2 CXCR2 transfectants (Fluo-4 AM); type: cell-based
Text: as §2

[9] = tested on: leukocyte adhesion and emigration in postcapillary venules; assay: Cremaster microcirculation model, intravital microscopy; type: in vivo, mouse; conditions: MIF injected adjacent to the cremaster muscle
Procedure: Cremaster microcirculation model. […] After 4 h, intravital microscopy (Zeiss Axioplan; 20×) was performed in postcapillary venules (Gregory, J. L., et al. (2004) Arthritis Rheum. 50, 3023-3034; Keane, M. P., et al. (2004) J. Immunol. 172, 2853-2860). Adhesion was measured as leukocytes stationary for more than 30 s, emigration as the number of extravascular leukocytes per field.

[10] = tested on: neutrophil recruitment; assay: Model of acute MIF-induced peritonitis; type: in vivo, mouse; conditions: after 4 h, mice with wild-type bone marrow
Procedure: Model of acute peritonitis. […] After 4 h, peritoneal Iavage was performed and Gr-1^+CD115^−F4/80^− neutrophils were quantified by flow cytometry using the relevant conjugated antibodies.

Sequence of CXCR4 (P61073 whole entry): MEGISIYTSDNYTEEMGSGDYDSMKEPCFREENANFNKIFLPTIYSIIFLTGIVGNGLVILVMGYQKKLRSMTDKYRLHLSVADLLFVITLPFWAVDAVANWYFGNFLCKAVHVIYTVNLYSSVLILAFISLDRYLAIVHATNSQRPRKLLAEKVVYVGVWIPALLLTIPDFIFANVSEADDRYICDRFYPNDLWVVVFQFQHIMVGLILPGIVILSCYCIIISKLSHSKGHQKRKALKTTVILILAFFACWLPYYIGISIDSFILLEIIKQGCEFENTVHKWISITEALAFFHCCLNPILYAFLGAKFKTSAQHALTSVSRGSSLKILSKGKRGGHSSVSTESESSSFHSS

c1ccc(CNCc2ccc(CN3CCCNCCNCCCNCC3)cc2)nc1 [AMD3465]
specific binding of fluorescein-MIF to CXCR4-bearing Jurkat cells [1]: inhibited

B1: MIF: Recombinant macrophage migration inhibitory factor, expressed and purified as described (Bernhagen 1993) (protein)
chain: PMFIVNTNVPRASVPDGFLSELTQQLAQATGKPPQYIAVHVVPDQLMAFGGSSEPCALCSLHSIGKIGGAQNRSYSKLLCGLLAERLRISPDRVYINYYDMNAANVGWNNSTFA
MIF concentration that induced optimal chemotaxis [2]: 2 to 4 nM
optimum of bell-shaped dose-response curve of induced monocyte migration ([2]; MIF in lower chamber, primary human PBMC-derived monocytes): 25 to 50 ng/mL
T-cell transmigration [3]: dose-dependently induced transmigration
CXCR2 internalization (surface CXCR2 by FACS) [4]: induced CXCR2 internalization
CCR5 internalization [5]: unable to induce CCR5 internalization
arrest of primary human monocytes under flow conditions [6]: substantially increased the arrest
calcium influx [7]: induced calcium influx
calcium influx [8]: dose-dependently induced calcium influx
leukocyte adhesion and emigration in postcapillary venules [9]: marked increase
neutrophil recruitment after intraperitoneal injection [10]: elicited neutrophil recruitment
